According to patent US20210309732A1 (ELIXIRON IMMUNOTHERAPEUTICS HONG KONG, published 2021):
Residue numbers refer to the chain shown, from its start. Numbers in names are those of the source.

B1: 1D2 SDR mutant HD31A (antibody, IgG1, V domains shown)
VH: QVQLVQSGAEVKKPGASVKVSCEASGYTFTAKYLHWVRQAPGQGLEWMAWINPKSGGTFYAQNFKGRVTVTRDTSINTAYLELTSLRLDDTSTYYCARGRDYYDQGAADLWGQGTMVTVSS
VL: DIQLTQSPSSLSASVGDRVTITCRASQGINSVLAWYQQKPGKAPKLLLYAASKLESGVPSRFSGSGSGTDYTLTISSLQPEDFGTYYCQQYYSPVRTFGQGTKVEIKR
notes: also called X1 A
B2: 1D2 SDR mutant HK54A (antibody, IgG1, V domains shown)
VH: B1 VH with A31D, K54A
VL: B1 VL
notes: also called X3 A
B3: 1D2 SDR mutant HD31G (antibody, IgG1, V domains shown)
VH: B1 VH with A31G
VL: B1 VL
notes: also called X1 G
B4: 1D2 SDR mutant HK54Q (antibody, IgG1, V domains shown)
VH: B1 VH with A31D, K54Q
VL: B1 VL
notes: also called X3 Q
B5: 1D2 SDR mutant HK32A (antibody, IgG1, V domains shown)
VH: B1 VH with A31D, K32A
VL: B1 VL
notes: also called X2 A
B6: 1D2 SDR mutant HD31L (antibody, IgG1, V domains shown)
VH: B1 VH with A31L
VL: B1 VL
notes: also called X1 L
B7: 1D2 SDR mutant HK32S (antibody, IgG1, V domains shown)
VH: B1 VH with A31D, K32S
VL: B1 VL
notes: also called X2 S
B8: 1D2 SDR mutant HK32F (antibody, IgG1, V domains shown)
VH: B1 VH with A31D, K32F
VL: B1 VL
notes: also called X2 F
B9: 1D2 SDR mutant HD31S (antibody, IgG1, V domains shown)
VH: B1 VH with A31S
VL: B1 VL
notes: also called X1 S
B10: 1D2 SDR mutant HD31P (antibody, IgG1, V domains shown)
VH: B1 VH with A31P
VL: B1 VL
notes: also called X1 P
B11: 1D2 SDR mutant HK54C (antibody, IgG1, V domains shown)
VH: B1 VH with A31D, K54C
VL: B1 VL
notes: also called X3 C
B12: 1D2 SDR mutant HD31N (antibody, IgG1, V domains shown)
VH: B1 VH with A31N
VL: B1 VL
notes: also called X1 N
B13: 1D2 SDR mutant HK32D (antibody, IgG1, V domains shown)
VH: B1 VH with A31D, K32D
VL: B1 VL
notes: also called X2 D
B14: 1D2 SDR mutant HK32T (antibody, IgG1, V domains shown)
VH: B1 VH with A31D, K32T
VL: B1 VL
notes: also called X2 T
B15: 1D2 SDR mutant HK54M (antibody, IgG1, V domains shown)
VH: B1 VH with A31D, K54M
VL: B1 VL
notes: also called X3 M
B16: 1D2 SDR mutant HK32E (antibody, IgG1, V domains shown)
VH: B1 VH with A31D, K32E
VL: B1 VL
notes: also called X2 E
B17: 1D2 SDR mutant HK32Q (antibody, IgG1, V domains shown)
VH: B1 VH with A31D, K32Q
VL: B1 VL
notes: also called X2 Q
B18: 1D2 SDR mutant HK54P (antibody, IgG1, V domains shown)
VH: B1 VH with A31D, K54P
VL: B1 VL
notes: also called X3 P
B19: 1D2 SDR mutant HD31W (antibody, IgG1, V domains shown)
VH: B1 VH with A31W
VL: B1 VL
notes: also called X1 W
B20: 1D2 SDR mutant HD31Q (antibody, IgG1, V domains shown)
VH: B1 VH with A31Q
VL: B1 VL
notes: also called X1 Q
B21: 1D2 SDR mutant HK32H (antibody, IgG1, V domains shown)
VH: B1 VH with A31D, K32H
VL: B1 VL
notes: also called X2 H
B22: 1D2 SDR mutant HK54I (antibody, IgG1, V domains shown)
VH: B1 VH with A31D, K54I
VL: B1 VL
notes: also called X3 I
B23: 1D2 SDR mutant HD31T (antibody, IgG1, V domains shown)
VH: B1 VH with A31T
VL: B1 VL
notes: also called X1 T
B24: 1D2 SDR mutant HK32C (antibody, IgG1, V domains shown)
VH: B1 VH with A31D, K32C
VL: B1 VL
notes: also called X2 C
B25: 1D2 SDR mutant HK32L (antibody, IgG1, V domains shown)
VH: B1 VH with A31D, K32L
VL: B1 VL
notes: also called X2 L
B26: 1D2 SDR mutant HK32N (antibody, IgG1, V domains shown)
VH: B1 VH with A31D, K32N
VL: B1 VL
notes: also called X2 N
B27: 1D2 SDR mutant HK54F (antibody, IgG1, V domains shown)
VH: B1 VH with A31D, K54F
VL: B1 VL
notes: also called X3 F
B28: 1D2 SDR mutant HK54N (antibody, IgG1, V domains shown)
VH: B1 VH with A31D, K54N
VL: B1 VL
notes: also called X3 N
B29: 1D2 SDR mutant HD31V (antibody, IgG1, V domains shown)
VH: B1 VH with A31V
VL: B1 VL
notes: also called X1 V
B30: 1D2 SDR mutant HD31E (antibody, IgG1, V domains shown)
VH: B1 VH with A31E
VL: B1 VL
notes: also called X1 E
B31: 1D2 SDR mutant HD31C (antibody, IgG1, V domains shown)
VH: B1 VH with A31C
VL: B1 VL
notes: also called X1 C
B32: 1D2 SDR mutant HD31R (antibody, IgG1, V domains shown)
VH: B1 VH with A31R
VL: B1 VL
notes: also called X1 R
B33: 1D2 SDR mutant HK32R (antibody, V domains shown)
VH: B1 VH with A31D, K32R
VL: B1 VL
notes: not the clone labelled 32R, which is light chain V32R; also called X2 R
B34: 1D2 SDR mutant HK54H (antibody, IgG1, V domains shown)
VH: B1 VH with A31D, K54H
VL: B1 VL
notes: also called X3 H
B35: 1D2 SDR mutant HK54E (antibody, IgG1, V domains shown)
VH: B1 VH with A31D, K54E
VL: B1 VL
notes: also called X3 E
B36: 1D2 SDR mutant HK32P (antibody, IgG1, V domains shown)
VH: B1 VH with A31D, K32P
VL: B1 VL
notes: also called X2 P
B37: 1D2 SDR mutant HK32V (antibody, IgG1, V domains shown)
VH: B1 VH with A31D, K32V
VL: B1 VL
notes: also called X2 V

Target: T1, recombinant human GM-CSF (human, UniProt P04141 18-144)
T1 construct: also called rhGM-CSF; CSF2
T1 sequence (P04141 18-144 limits assumed): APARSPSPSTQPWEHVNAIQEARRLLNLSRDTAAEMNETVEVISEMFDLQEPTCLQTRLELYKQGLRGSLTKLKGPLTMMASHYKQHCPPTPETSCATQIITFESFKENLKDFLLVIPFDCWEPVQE
Experiment: ELISA on coated rhGM-CSF, UBA relative to 1D2
Text: Some of the residues in the CDRs are essential for epitope binding affinity and/or specificity. A number of computational methods were developed to detect these functional residues, generally known as ‘specificity-determining resides’ (SDRs). […] Based on the analysis, 7 amino acid residues in VH and 3 amino acid residues in VL were selected as the SDRs. The residues are labeled X₁ to X₁₀ for the ease of reference. The SDRs on VH are: Heavy chain D31 (HD31) (X₁), HK32 (X₂), HK54(X₃), HR100 (X₄), HY102 (X₅), HY103 (X₆) and HQ105 (X₇). The SDRs on VL are Light chain V32 (LV32) (X₈), LP94 (X₉) and LV95 (X₁₀). The SDRs were subsequently mutated by site-directed mutagenesis to other amino acids to generate mutant VH or VL clones. HEK293 cells were co-transfected with a vector encoding a mutant VH paired with a vector encoding a wild type VL or a vector encoding a wild type VH paired with a vector encoding a mutant VL. The antibody clones were harvested from the culture medium. The binding affinity of each antibody clone to human GM-CSF was tested by ELISA. The ELISA was done according to the following procedures. ELISA plate was coated with 50 μl of rhGM-CSF at 1 μg/mL. The plate was washed with 200 μl PBST for three times, followed by blocking with 1% BSA for 1 hour at room temperature. The antibody clones to be tested were diluted at 1:12000. 100 μl of the diluted antibodies were added to the cell at 100 μl/well. The plate was incubated at room temperature for 1 hour. The plate was then washed and incubated with 1:5000 diluted goat-anti-human secondary antibody conjugated with HRP at room temperature for one hour. The ELISA assay was developed with 100 μl developing buffer containing H₂O₂-Amplx Red per well in the dark for 5 min and the fluorescence intensity was read at Ex.530/Em.590 nm, with cutoff at 570 nm. The Unit Binding Activity (UBA) of each sample was calculated as the fluorescence signal/antibody clone dilution factor.

Binder	binding affinity % of 1D2
B1	66%
B2	117%
B3	58%
B4	93%
B5	61%
B6	57%
B7	78%
B8	63%
B9	47%
B10	69%
B11	76%
B12	74%
B13	90%
B14	74%
B15	106%
B16	94%
B17	91%
B18	85%
B19	72%

Binder	binding affinity % of 1D2
B20	74%
B21	76%
B22	100%
B23	44%
B24	86%
B25	60%
B26	97%
B27	67%
B28	73%
B29	71%
B30	63%
B31	79%
B32	73%
B33	90%
B34	74%
B35	113%
B36	88%
B37	90%
